Measured values reported in publication PMC12174363, “Multiple glutathione-S-transferases detoxify diverse glucosinolate-based defenses of Brassicales plants in a generalist lepidopteran herbivore (Spodoptera littoralis)” (Communications Biology, 2025).

Key:
purified protein [1] = substrate: C=CCN=C=S; test: purified protein; assay type: biochemical, Spodoptera littoralis; conditions: 4 mM GSH (saturating), 100 mM potassium phosphate pH 6.5, 25 °C, 2.4% acetonitrile
purified protein [2] = substrate: S=C=NCc1ccccc1; test: purified protein; assay type: biochemical, Spodoptera littoralis; conditions: 4 mM GSH (saturating), 100 mM potassium phosphate pH 6.5, 25 °C, 2.4% acetonitrile

B1: GSTS6 (GSTs6) (Spodoptera littoralis) (protein)
chain: MPKKLSYFNLNGLAEPIRYILHYTNQEFEDVRYDVYSWPDPKIKASLPYGQFPVYEEDGRVLTQSLAITKYVARGTDLVPTDPWDNAFIESVIFSIMDYWKNVVPTVREPDPAKYTELRNEIIEKNIPYYFSRFNKHLEDNGGFLNGKLSWGDFVFCGVIEASDMFLGIELSKDYPAVGSLVQHIRNLPGVKEYVKSIGPYTIDLARFKYKK
notes: cytosolic sigma class
Km (purified protein [1]): 567.11 ± 131.85 µM
Vmax (purified protein [1]): 39.3 µmol/min/mg
kcat (purified protein [1]): 16.1 ± 2.28 s⁻¹
kcat/Km (purified protein [1]): 28400 ± 4020 M⁻¹ s⁻¹
Km (purified protein [2]): 98.24 ± 21.15 µM
Vmax (purified protein [2]): 52.7 µmol/min/mg
kcat (purified protein [2]): 21.6 ± 1.46 s⁻¹
kcat/Km (purified protein [2]): 220000 ± 14900 M⁻¹ s⁻¹

B2: GSTE14 (GSTe14) (Spodoptera littoralis) (protein)
chain: MGVKLYVMDFSPPSRACMLTCEIFGIPFEKIPVDLFKGEHLAPNYLQKNPLHTIPVLEDGDLILYDSHAIMAYLADTYGKDESWYPKDVKKRALVNQKLFFNTAVIYRRLRNITYYVFQRGRKTLEQDWLDDIAEGYGFLEAFLSKTKYIAGDHITIADIAILSHLTNLEYILPIDAKKYPKTSAWLEDFKATPYAKKHNEEGAKALNDLLKKFLTS
notes: cytosolic epsilon class
Km (purified protein [1]): 124.10 ± 15.66 µM
Vmax (purified protein [1]): 89.4 µmol/min/mg
kcat (purified protein [1]): 37.4 ± 1.85 s⁻¹
kcat/Km (purified protein [1]): 302000 ± 14900 M⁻¹ s⁻¹
Km (purified protein [2]): 185.37 ± 89.77 µM
Vmax (purified protein [2]): 47.3 µmol/min/mg
kcat (purified protein [2]): 19.8 ± 3.35 s⁻¹
kcat/Km (purified protein [2]): 107000 ± 37300 M⁻¹ s⁻¹
